Reference: PMC4838190 (Molecular cell, 2015)

Target: cSH2 domain of PLCγ (isolated, solution experiments)
Experiment: NMR titration

B1: activated FGFR2 kinase, mono-phosphorylated on Tyr-769 (FGFR2K^pY769) (domain or fragment)
chain: MGSSHHHHHHSQDPMLAGVSEFELPEDPKWEFPRDKLTLGKPLGEGAFGQVVMAEAVGIDKDKPKEAVTVAVKMLKDDATEKDLSDLVSEMEMMKMIGKHKNIINLLGACTQDGPLYVIVAYASKGNLREYLRARRPPGMELSPDINRVPEEQMTFKDLVSCTYQLARGMEYLASQKCIHRDLAARNVLVTENNVMKIADFGLARDINNIDFFKETTNGRLPVKWMAPEALFDRVYTHQSDVWSFGVLMWEIFTLGGSPYPGIPVEELFKLLKEGHRMDKPANCTNELYMMMRDCWHAVPSQRPTFKQLVEDLDRILTLTTNEEYLDLSQPLEQ
modifications: phosphotyrosine at 769
stoichiometry N: 1 FGFR2K^pY769 per cSH2
